Measured values reported in publication doi:10.1101/2025.11.18.689095 (bioRxiv, 2025).

The molecules below were run on biotinylated full-length Hsp90 (assay: BLI, Tom70 mutants binding to biotinylated full-length Hsp90). Conditions: biotinylated full-length Hsp90 immobilized, Tom70 40 µM, Fig S7B.
Parameters: species or system human
Procedure: Biotinylated Hsp90 proteins were immobilized onto streptavidin biosensor probes, and experiments were conducted in buffer containing 20 mM sodium phosphate (pH 7), 150 mM NaCl, 1% BSA, 0.6 M sucrose, and 1 mM TCEP[68]. […] To combat heterogenous binding, dissociation curves were fit with a two-phase exponential curve. Due to the association rate (kon) being too rapid to quantify, kon values were indirectly estimated by combining koff values obtained from BLI with KD values determined by ITC ( kon=koffBLI/KDITC ). All data are corrected for non-specific binding. Error is given as the standard deviation of at least two measurements.
Supplementary Figure 7: (A) Interacting residues between Tom70 and Hsp90EEVD peptide. (B) BLI sensorgrams of biotinylated full-length Hsp90 assayed to Tom70 mutants. WT refers to “wild-type” Tom70. All Tom70 concentrations are at 40 µM. Dotted line demarcates the beginning of the dissociation phase. (C-D) ITC thermograms and isotherms for the interaction of Tom70 to an (C) amidated Hsp90EEVD peptide and a (D) Hsp90EQVD peptide. N.D. stands for “not-detected” due to the lack of sufficient heat generated.
(1 picture or pasted object on this page, not shown here)

Row | Molecule | binding of Tom70 mutant to Hsp90
1 | K118A: K118A mutation in hTom70 (protein) MNSLDRAQAAANKGNKYFKAGKYEQAIQCYTEAISLCPTEKNVDLSTFYQNRAAAFEQLQKWKEVAQDCTKAVELNPKYVKALFRRAKAHEKLDNKKECLEDVTAVCILEGFQNQQSMLLADKVLKLLGKEKAKEKYKNREPLMPSPQFIKSYFSSFTDDIISQPMLKGEKSDEDKDKEGEALEVKENSGYLKAKQYMEEENYDKIISECSKEIDAEGKYMAEALLLRATFYLLIGNANAAKPDLDKVISLKEANVKLRANALIKRGSMYMQQQQPLLSTQDFNMAADIDPQNADVYHHRGQLKILLDQVEEAVADFDECIRLRPESALAQAQKCFALYRQAYTGNNSSQIQAAMKGFEEVIKKFPRCAEGYALYAQALTDQQQFGKADEMYDKCIDLEPDNATTYVHKGLLQLQWKQDLDRGLELISKAIEIDNKCDFAYETMGTIEVQRGNMEKAIDMFNKAINLAKSEMEMAHLYSLCDAAHAQTEVAKKYGLKPPTL | eliminated binding
2 | N158A: N158A mutation in hTom70 (protein) MNSLDRAQAAKNKGNKYFKAGKYEQAIQCYTEAISLCPTEKNVDLSTFYQARAAAFEQLQKWKEVAQDCTKAVELNPKYVKALFRRAKAHEKLDNKKECLEDVTAVCILEGFQNQQSMLLADKVLKLLGKEKAKEKYKNREPLMPSPQFIKSYFSSFTDDIISQPMLKGEKSDEDKDKEGEALEVKENSGYLKAKQYMEEENYDKIISECSKEIDAEGKYMAEALLLRATFYLLIGNANAAKPDLDKVISLKEANVKLRANALIKRGSMYMQQQQPLLSTQDFNMAADIDPQNADVYHHRGQLKILLDQVEEAVADFDECIRLRPESALAQAQKCFALYRQAYTGNNSSQIQAAMKGFEEVIKKFPRCAEGYALYAQALTDQQQFGKADEMYDKCIDLEPDNATTYVHKGLLQLQWKQDLDRGLELISKAIEIDNKCDFAYETMGTIEVQRGNMEKAIDMFNKAINLAKSEMEMAHLYSLCDAAHAQTEVAKKYGLKPPTL | eliminated binding
3 | K188A: K188A mutation in Tom70 (protein) MNSLDRAQAAKNKGNKYFKAGKYEQAIQCYTEAISLCPTEKNVDLSTFYQNRAAAFEQLQKWKEVAQDCTKAVELNPKYVAALFRRAKAHEKLDNKKECLEDVTAVCILEGFQNQQSMLLADKVLKLLGKEKAKEKYKNREPLMPSPQFIKSYFSSFTDDIISQPMLKGEKSDEDKDKEGEALEVKENSGYLKAKQYMEEENYDKIISECSKEIDAEGKYMAEALLLRATFYLLIGNANAAKPDLDKVISLKEANVKLRANALIKRGSMYMQQQQPLLSTQDFNMAADIDPQNADVYHHRGQLKILLDQVEEAVADFDECIRLRPESALAQAQKCFALYRQAYTGNNSSQIQAAMKGFEEVIKKFPRCAEGYALYAQALTDQQQFGKADEMYDKCIDLEPDNATTYVHKGLLQLQWKQDLDRGLELISKAIEIDNKCDFAYETMGTIEVQRGNMEKAIDMFNKAINLAKSEMEMAHLYSLCDAAHAQTEVAKKYGLKPPTL | abrogated binding
4 | R192A: R192A mutation in Tom70 (protein) MNSLDRAQAAKNKGNKYFKAGKYEQAIQCYTEAISLCPTEKNVDLSTFYQNRAAAFEQLQKWKEVAQDCTKAVELNPKYVKALFARAKAHEKLDNKKECLEDVTAVCILEGFQNQQSMLLADKVLKLLGKEKAKEKYKNREPLMPSPQFIKSYFSSFTDDIISQPMLKGEKSDEDKDKEGEALEVKENSGYLKAKQYMEEENYDKIISECSKEIDAEGKYMAEALLLRATFYLLIGNANAAKPDLDKVISLKEANVKLRANALIKRGSMYMQQQQPLLSTQDFNMAADIDPQNADVYHHRGQLKILLDQVEEAVADFDECIRLRPESALAQAQKCFALYRQAYTGNNSSQIQAAMKGFEEVIKKFPRCAEGYALYAQALTDQQQFGKADEMYDKCIDLEPDNATTYVHKGLLQLQWKQDLDRGLELISKAIEIDNKCDFAYETMGTIEVQRGNMEKAIDMFNKAINLAKSEMEMAHLYSLCDAAHAQTEVAKKYGLKPPTL | abrogated binding
